# Laboratory results reported in PMC12705702, “Structural insights into the atypical filament assembly of pyrin domain-containing IFI16” (The EMBO Journal, 2025).
# Target: the molecule itself
# Assay: cryo-EM structure; filament auto-assembled by recombinant IFI16^PYD; 73 uM in 40 mM HEPES pH 7.4, 160 mM NaCl, 1 mM EDTA, 1 mM DTT; helical reconstruction, 3.3 Å
protein,measurement,value
"human IFI16 pyrin domain (IFI16^PYD, residues 1-94) with C-terminal His6-tag (domain or fragment, UniProt Q16666 1-94, looked up, Interferon-inducible protein 16 (IFI16), human, pyrin domain, residues 1-94; Assembles into a helical filament; the number of protomers in a filament is open-ended; also called recombinant IFI16^PYD; pET21b IFI16^PYD-His6; source: E. coli BL21(DE3), purified (Ni-NTA, Superdex 75 size exclusion)) MGKKYKNIVLLKGLEVINDYHFRMVKSLLSNDLKLNLKMREEYDKIQIADLMEEKFRGDAGLGKLIKIFEDIPTLEDLAETLKKEKLKVKGPAL",binding result,binds
